T1: EsCas13d, nuclease-dead (Eubacterium siraeum, UniProt B0MS50, R295A;H300A;R849A;H854A)
T1 sequence: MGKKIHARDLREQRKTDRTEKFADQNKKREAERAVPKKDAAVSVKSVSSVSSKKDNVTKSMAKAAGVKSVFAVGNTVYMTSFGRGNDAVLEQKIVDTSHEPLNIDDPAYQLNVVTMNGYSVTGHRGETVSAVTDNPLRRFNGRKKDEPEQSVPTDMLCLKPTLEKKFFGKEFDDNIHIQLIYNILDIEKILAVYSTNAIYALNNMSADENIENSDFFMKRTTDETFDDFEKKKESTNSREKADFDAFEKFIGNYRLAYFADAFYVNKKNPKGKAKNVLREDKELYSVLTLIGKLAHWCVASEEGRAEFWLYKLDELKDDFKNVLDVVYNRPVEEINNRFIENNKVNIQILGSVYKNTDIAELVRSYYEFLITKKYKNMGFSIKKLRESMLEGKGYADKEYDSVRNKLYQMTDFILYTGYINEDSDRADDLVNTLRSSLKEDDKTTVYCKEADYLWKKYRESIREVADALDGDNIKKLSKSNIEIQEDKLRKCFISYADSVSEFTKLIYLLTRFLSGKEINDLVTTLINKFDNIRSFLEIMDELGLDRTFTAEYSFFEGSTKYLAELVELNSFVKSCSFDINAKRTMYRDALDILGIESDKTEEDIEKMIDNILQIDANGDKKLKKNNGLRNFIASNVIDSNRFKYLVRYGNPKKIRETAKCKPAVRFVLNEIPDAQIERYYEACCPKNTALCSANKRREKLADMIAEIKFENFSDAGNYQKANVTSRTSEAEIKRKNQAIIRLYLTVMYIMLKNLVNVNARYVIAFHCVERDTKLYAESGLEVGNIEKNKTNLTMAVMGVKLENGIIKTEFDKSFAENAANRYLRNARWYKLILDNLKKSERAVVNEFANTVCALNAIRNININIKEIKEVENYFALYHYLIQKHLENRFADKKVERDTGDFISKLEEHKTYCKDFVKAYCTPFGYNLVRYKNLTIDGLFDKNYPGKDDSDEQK

B1: target 1 insA 3' of 8,insA 3' of 5 (mixed)
RNA 1: CACCCGUGCAAAAAUGCAGGGGUCUAAAACUGAGCGGAUAACCUCUCUAUGG
RNA 2: GGGAAUGGAUCCACAUCUACGAAUUCGUACCAUAGAGAGGUUAUACCGACUCACCGAGAUCGGAAGAGCACACGU
B2: target 1 insA 3' of 19,insG 3' of 7 (mixed)
RNA 1: CACCCGUGCAAAAAUGCAGGGGUCUAAAACUGAGCGGAUAACCUCUCUAUGG
RNA 2: GGGAAUGGAUCCACAUCUACGAAUUCGUACCAUAAGAGAGGUUAUCGCGCUCACCGAGAUCGGAAGAGCACACGU
B3: target 1 insU 3' of 14,insU 3' of 14 (mixed)
RNA 1: CACCCGUGCAAAAAUGCAGGGGUCUAAAACUGAGCGGAUAACCUCUCUAUGG
RNA 2: GGGAAUGGAUCCACAUCUACGAAUUCGUACCAUAGAGAUUGGUUAUCCGCUCACCGAGAUCGGAAGAGCACACGU
B4: target 1 insA 3' of 17,insU 3' of 12 (mixed)
RNA 1: CACCCGUGCAAAAAUGCAGGGGUCUAAAACUGAGCGGAUAACCUCUCUAUGG
RNA 2: GGGAAUGGAUCCACAUCUACGAAUUCGUACCAUAGAAGAGGUUUAUCCGCUCACCGAGAUCGGAAGAGCACACGU
B5: target 1 del7,del15 (mixed)
RNA 1: CACCCGUGCAAAAAUGCAGGGGUCUAAAACUGAGCGGAUAACCUCUCUAUGG
RNA 2: GGGAAUGGAUCCACAUCUACGAAUUCGUACCAUAGAAGGUUAUCGCUCACCGAGAUCGGAAGAGCACACGU
B6: target 1 G12U,C21A (mixed)
RNA 1: CACCCGUGCAAAAAUGCAGGGGUCUAAAACUGAGCGGAUAACCUCUCUAUGG
RNA 2: GGGAAUGGAUCCACAUCUACGAAUUCGUACAAUAGAGAGUUUAUCCGCUCACCGAGAUCGGAAGAGCACACGU
B7: target 1 insC 3' of 19,insU 3' of 7 (mixed)
RNA 1: CACCCGUGCAAAAAUGCAGGGGUCUAAAACUGAGCGGAUAACCUCUCUAUGG
RNA 2: GGGAAUGGAUCCACAUCUACGAAUUCGUACCAUCAGAGAGGUUAUCUCGCUCACCGAGAUCGGAAGAGCACACGU
B8: target 1 insA 3' of 15,insG 3' of 8 (mixed)
RNA 1: CACCCGUGCAAAAAUGCAGGGGUCUAAAACUGAGCGGAUAACCUCUCUAUGG
RNA 2: GGGAAUGGAUCCACAUCUACGAAUUCGUACCAUAGAGAAGGUUAUGCCGCUCACCGAGAUCGGAAGAGCACACGU
B9: target 1 C4A,U19C (mixed)
RNA 1: CACCCGUGCAAAAAUGCAGGGGUCUAAAACUGAGCGGAUAACCUCUCUAUGG
RNA 2: GGGAAUGGAUCCACAUCUACGAAUUCGUACCACAGAGAGGUUAUCCGAUCACCGAGAUCGGAAGAGCACACGU
B10: target 1 G5A,U10C (mixed)
RNA 1: CACCCGUGCAAAAAUGCAGGGGUCUAAAACUGAGCGGAUAACCUCUCUAUGG
RNA 2: GGGAAUGGAUCCACAUCUACGAAUUCGUACCAUAGAGAGGUCAUCCACUCACCGAGAUCGGAAGAGCACACGU
B11: target 1 C6A,A16C (mixed)
RNA 1: CACCCGUGCAAAAAUGCAGGGGUCUAAAACUGAGCGGAUAACCUCUCUAUGG
RNA 2: GGGAAUGGAUCCACAUCUACGAAUUCGUACCAUAGCGAGGUUAUCAGCUCACCGAGAUCGGAAGAGCACACGU
B12: target 1 U11A,G17C (mixed)
RNA 1: CACCCGUGCAAAAAUGCAGGGGUCUAAAACUGAGCGGAUAACCUCUCUAUGG
RNA 2: GGGAAUGGAUCCACAUCUACGAAUUCGUACCAUACAGAGGAUAUCCGCUCACCGAGAUCGGAAGAGCACACGU
B13: target 1 insC 3' of 17,insU 3' of 15 (mixed)
RNA 1: CACCCGUGCAAAAAUGCAGGGGUCUAAAACUGAGCGGAUAACCUCUCUAUGG
RNA 2: GGGAAUGGAUCCACAUCUACGAAUUCGUACCAUAGCAGUAGGUUAUCCGCUCACCGAGAUCGGAAGAGCACACGU
B14: target 1 G5C,G12C (mixed)
RNA 1: CACCCGUGCAAAAAUGCAGGGGUCUAAAACUGAGCGGAUAACCUCUCUAUGG
RNA 2: GGGAAUGGAUCCACAUCUACGAAUUCGUACCAUAGAGAGCUUAUCCCCUCACCGAGAUCGGAAGAGCACACGU
B15: target 1 insC 3' of 15,insG 3' of 10 (mixed)
RNA 1: CACCCGUGCAAAAAUGCAGGGGUCUAAAACUGAGCGGAUAACCUCUCUAUGG
RNA 2: GGGAAUGGAUCCACAUCUACGAAUUCGUACCAUAGAGCAGGUUGAUCCGCUCACCGAGAUCGGAAGAGCACACGU
B16: target 1 complement block 18-20 (mixed)
RNA 1: CACCCGUGCAAAAAUGCAGGGGUCUAAAACUGAGCGGAUAACCUCUCUAUGG
RNA 2: GGGAAUGGAUCCACAUCUACGAAUUCGUACCUAUGAGAGGUUAUCCGCUCACCGAGAUCGGAAGAGCACACGU
B17: target 1 U19G,C22A (mixed)
RNA 1: CACCCGUGCAAAAAUGCAGGGGUCUAAAACUGAGCGGAUAACCUCUCUAUGG
RNA 2: GGGAAUGGAUCCACAUCUACGAAUUCGUAACAGAGAGAGGUUAUCCGCUCACCGAGAUCGGAAGAGCACACGU
B18: target 1 del14 (mixed)
RNA 1: CACCCGUGCAAAAAUGCAGGGGUCUAAAACUGAGCGGAUAACCUCUCUAUGG
RNA 2: GGGAAUGGAUCCACAUCUACGAAUUCGUACCAUAGAGGGUUAUCCGCUCACCGAGAUCGGAAGAGCACACGU
B19: target 1 A18C,C21U (mixed)
RNA 1: CACCCGUGCAAAAAUGCAGGGGUCUAAAACUGAGCGGAUAACCUCUCUAUGG
RNA 2: GGGAAUGGAUCCACAUCUACGAAUUCGUACUAUCGAGAGGUUAUCCGCUCACCGAGAUCGGAAGAGCACACGU
B20: target 1 insA 3' of 17,insG 3' of 9 (mixed)
RNA 1: CACCCGUGCAAAAAUGCAGGGGUCUAAAACUGAGCGGAUAACCUCUCUAUGG
RNA 2: GGGAAUGGAUCCACAUCUACGAAUUCGUACCAUAGAAGAGGUUAGUCCGCUCACCGAGAUCGGAAGAGCACACGU
B21: target 1 insU 3' of 6,insU 3' of 5 (mixed)
RNA 1: CACCCGUGCAAAAAUGCAGGGGUCUAAAACUGAGCGGAUAACCUCUCUAUGG
RNA 2: GGGAAUGGAUCCACAUCUACGAAUUCGUACCAUAGAGAGGUUAUCCUGUCUCACCGAGAUCGGAAGAGCACACGU
B22: target 1 C2G,A20C (mixed)
RNA 1: CACCCGUGCAAAAAUGCAGGGGUCUAAAACUGAGCGGAUAACCUCUCUAUGG
RNA 2: GGGAAUGGAUCCACAUCUACGAAUUCGUACCCUAGAGAGGUUAUCCGCUGACCGAGAUCGGAAGAGCACACGU
B23: target 1 C2U,C6G (mixed)
RNA 1: CACCCGUGCAAAAAUGCAGGGGUCUAAAACUGAGCGGAUAACCUCUCUAUGG
RNA 2: GGGAAUGGAUCCACAUCUACGAAUUCGUACCAUAGAGAGGUUAUCGGCUUACCGAGAUCGGAAGAGCACACGU
B24: target 1 C2U,G17A (mixed)
RNA 1: CACCCGUGCAAAAAUGCAGGGGUCUAAAACUGAGCGGAUAACCUCUCUAUGG
RNA 2: GGGAAUGGAUCCACAUCUACGAAUUCGUACCAUAAAGAGGUUAUCCGCUUACCGAGAUCGGAAGAGCACACGU
B25: target 1 insU 3' of 17,insU 3' of 4 (mixed)
RNA 1: CACCCGUGCAAAAAUGCAGGGGUCUAAAACUGAGCGGAUAACCUCUCUAUGG
RNA 2: GGGAAUGGAUCCACAUCUACGAAUUCGUACCAUAGUAGAGGUUAUCCGCUUCACCGAGAUCGGAAGAGCACACGU
B26: target 1 insU 3' of 4,insG 3' of 2 (mixed)
RNA 1: CACCCGUGCAAAAAUGCAGGGGUCUAAAACUGAGCGGAUAACCUCUCUAUGG
RNA 2: GGGAAUGGAUCCACAUCUACGAAUUCGUACCAUAGAGAGGUUAUCCGCUUCGACCGAGAUCGGAAGAGCACACGU
B27: target 1 C2U,G13C (mixed)
RNA 1: CACCCGUGCAAAAAUGCAGGGGUCUAAAACUGAGCGGAUAACCUCUCUAUGG
RNA 2: GGGAAUGGAUCCACAUCUACGAAUUCGUACCAUAGAGACGUUAUCCGCUUACCGAGAUCGGAAGAGCACACGU
B28: target 1 insU 3' of 13,insG 3' of 9 (mixed)
RNA 1: CACCCGUGCAAAAAUGCAGGGGUCUAAAACUGAGCGGAUAACCUCUCUAUGG
RNA 2: GGGAAUGGAUCCACAUCUACGAAUUCGUACCAUAGAGAGUGUUAGUCCGCUCACCGAGAUCGGAAGAGCACACGU

biological target: T1, EsCas13d, nuclease-dead; assay: crRNA (strand 1, pre-loaded); Mg2+; 40 mM Tris-HCl pH 7.5, 150 mM NaCl, 6 mM MgCl2, 1 mM DTT, 0.1% Tween-20, 0.2 mg/ml BSA; 25 C; 10 min per concentration, then washed; conditions: tags: His6-TwinStrep-SUMO cleaved; N-terminal SNAP kept (SNAP-Surface 488); label: 3' end held by stalled T7 RNA polymerase

B1 and B2 are within error of each other in Kd: 18.8 ± 1.5 nM for the first, 16.3 ± 1.4 nM for the second.

Going from B3 to B4, the Kd falls from 21 ± 1.3 nM to 10.4 ± 0.6 nM (2-fold). The second binds more tightly here.

First: B5
Second: B6
The Kd of the first is 1.6-fold lower: 17.3 ± 0.7 nM for the first, 27.4 ± 2.3 nM for the second. The first binds more tightly here.

Compared with B7, B8 is 7.8-fold lower in Kd: 62 ± 7 nM for the first, 7.9 ± 0.4 nM for the second. The second binds more tightly here.

B9 and B10 are within 1.5-fold of each other in Kd: roughly 36 nM for the first, 47 ± 5 nM for the second.

Going from B11 to B12, the Kd rises from 35.4 ± 2.2 nM to roughly 70 nM (2-fold). The first binds more tightly here.

Going from B13 to B14, the Kd rises from 19.1 ± 1 nM to 30.4 ± 1.8 nM (1.6-fold). The first binds more tightly here.

Going from B15 to B16, the Kd rises from 24.6 ± 1.8 nM to 57 ± 7 nM (2.3-fold).

Compared with B17, B18 is 4.5-fold lower in Kd: 54 ± 9 nM for the first, 12.1 ± 0.9 nM for the second.

Going from B19 to B20, the Kd rises from 7.48 ± 0.31 nM to 22.2 ± 2.5 nM (3-fold). The first binds more tightly here.

First: B21
Second: B22
The Kd of the first is 1.5-fold lower: 14.3 ± 0.6 nM for the first, 21.8 ± 1.1 nM for the second.

First: B23
Second: B24
The Kd of the first is 4.4-fold lower: 7.9 ± 0.3 nM for the first, 34.4 ± 2.7 nM for the second. The first binds more tightly here.

First: B25
Second: B26
The Kd of the first is 2.6-fold higher: 19.2 ± 2.1 nM for the first, 7.4 ± 0.5 nM for the second.

First: B27
Second: B28
The Kd of the first is 1.8-fold higher: 44 ± 7 nM for the first, 24.8 ± 3.2 nM for the second.
